In paper PMC9168760, “A novel AMPK activator shows therapeutic potential in hepatocellular carcinoma by suppressing HIF1α‐mediated aerobic glycolysis” (Molecular Oncology, 2022):

Molecular target: T1, hypoxia‐inducible factor 1‐alpha (human (endogenous in PLC5), UniProt Q16665 1-826)
T1 construct: HIF1α, endogenous protein of human HCC cells, immunoprecipitated or blotted with HIF1α antibodies; also called HIF1α
Experiment: co-IP; cells treated with DMSO or SCT‐1015; immunoprecipitation with HIF1α antibodies, blot for PHD3; 400 μg whole‐cell extract, 4 μg antibody overnight at 4 °C, protein A/G magnetic beads
Conditions: partners not purified

T1 sequence (Q16665 whole entry): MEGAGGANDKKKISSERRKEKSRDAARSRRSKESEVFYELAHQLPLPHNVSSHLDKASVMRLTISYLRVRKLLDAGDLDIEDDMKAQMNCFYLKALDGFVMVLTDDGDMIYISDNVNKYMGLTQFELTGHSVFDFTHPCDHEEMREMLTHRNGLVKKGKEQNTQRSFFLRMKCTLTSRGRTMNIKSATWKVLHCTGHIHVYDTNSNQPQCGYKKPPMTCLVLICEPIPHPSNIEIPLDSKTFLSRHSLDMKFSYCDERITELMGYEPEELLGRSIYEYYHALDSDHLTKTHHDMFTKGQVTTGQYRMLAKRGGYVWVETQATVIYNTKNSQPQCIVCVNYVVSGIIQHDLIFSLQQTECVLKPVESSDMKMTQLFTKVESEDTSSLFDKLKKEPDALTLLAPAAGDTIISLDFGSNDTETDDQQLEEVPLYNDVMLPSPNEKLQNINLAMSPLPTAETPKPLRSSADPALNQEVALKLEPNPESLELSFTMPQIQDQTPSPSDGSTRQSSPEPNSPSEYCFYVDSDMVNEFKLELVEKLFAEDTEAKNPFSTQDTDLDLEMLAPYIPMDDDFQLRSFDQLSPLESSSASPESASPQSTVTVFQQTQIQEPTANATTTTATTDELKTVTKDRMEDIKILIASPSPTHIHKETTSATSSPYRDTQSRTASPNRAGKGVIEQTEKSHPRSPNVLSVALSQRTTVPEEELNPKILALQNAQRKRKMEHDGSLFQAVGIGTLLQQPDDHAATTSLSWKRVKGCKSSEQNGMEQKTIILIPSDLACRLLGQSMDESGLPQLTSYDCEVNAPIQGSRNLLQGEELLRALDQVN

B1: prolyl hydroxylase 3 (enzyme, human (endogenous in HCC cells), UniProt Q9H6Z9 1-239, looked up)
chain: MPLGHIMRLDLEKIALEYIVPCLHEVGFCYLDNFLGEVVGDCVLERVKQLHCTGALRDGQLAGPRAGVSKRHLRGDQITWIGGNEEGCEAISFLLSLIDRLVLYCGSRLGKYYVKERSKAMVACYPGNGTGYVRHVDNPNGDGRCITCIYYLNKNWDAKLHGGILRIFPEGKSFIADVEPIFDRLLFFWSDRRNPHEVQPSYATRYAMTVWYFDAEERAEAKKKFRNLTRKTESALTED
notes: PHD3, endogenous protein detected with the PHD3 antibody (Abcam ab30782) in HIF1α immunoprecipitates; also called PHD3; PHD
  fold change of the ratio PHD3/HIF1α in the HIF1α immunoprecipitate, SCT‐1015 against DMSO: 1.6 fold
